Source: patent US20060183887A1 (Amgen, published 2006)
Each block holds one binder with its values, some of them ahead of it.

Experiments:
[1] = molecular target: T1, soluble EGF-r purified from A431 cell membranes (Sigma, E-3641) (human, UniProt P00533 25-1210, limits assumed); experiment: in solution by ELISA, Scatchard analysis
T1 construct: The BIAcore methods say that either this protein or the recombinant extracellular domain of EGFr was immobilized; also called purified A431 cell membrane-derived EGFr protein
Procedure: After incubation, 70 μl of each mixture was transferred into the wells of 96-well microtiter plates previously coated with the same monoclonal antibody (100 μl/well, at 2 μg/ml in coating buffer) and incubated for 15 min at room temperature.

[2] = molecular target: T2, human epidermal growth factor receptor (EGF-r) on the surface of human carcinoma cells (A431, SW948, … (human, UniProt P00533 25-1210)); experiment: inhibition of 125I-EGF binding to A431 cells (FIG. 36)
T2 construct: whole, on cells; also called surface expressed EGF-r

[3] = molecular target: T1, soluble EGF-r purified from A431 cell …; experiment: BIAcore, solid phase, antigen immobilized at 228 RU
Procedure: Determination of affinity constants of fully human Mabs by BIAcore: Affinity measurement of purified human monoclonal antibodies, Fab fragments, or hybridoma supernatants by plasmon resonance was carried out using the BIAcore 2000 instrument, using general procedures outlined by the manufacturers.
Based upon the general procedures outlined by the manufacture, kinetic analyses of the antibodies were performed using antigens immobilized onto the sensor surface at a low density. […] The dissociation (kd or koff) and association (ka or kₒₙ) rates were determined using the software provided by the manufacturer (BIA evaluation 2.1).

[4] = molecular target: T1, soluble EGF-r purified from A431 cell …; experiment: BIAcore, solid phase, antigen immobilized at 818 RU
[5] = molecular target: T2, human epidermal growth factor receptor …; experiment: inhibition of [125I]EGF binding to SW948 cells
[6] = molecular target: T1, soluble EGF-r purified from A431 cell …; experiment: solid phase (BIAcore) and solution measurements
[7] = molecular target: T2, human epidermal growth factor receptor …; experiment: inhibition of [125I]EGF (0.1 nM) binding to A431 cells
Source text: The plates were washed five times, air-dried and counted in a scintillation counter.

Kd [1]: 0.11 nM
concentration at which inhibition of EGF binding begins [2]: ~8 nM
Kd [3]: 0.16 nM
koff [3]: 0.0003 s⁻¹
kon [3]: 1.9e+06 M⁻¹ s⁻¹
B1: antibody secreted by the hybridoma E2.11 (antibody, human IgG2, V domains shown)
VH: VSGGSVSSGDYYWSWIRQPPGKGLEWIGHLYYSGNTNYNPSLKSRVTISLDTSKNQFSLKLSSVTAADTAVYYCARDFLTGSFFDYWGQGTLVTVSS
VL: TITCQASQDISNYLNWYQQKPGKAPKLLINDASDLETGVPSRISGSGSGTDFTFTISNLQPEDIATYYCQQYDSLPLTFGGGTKVEIRR
notes: Fully human IgG2 with a kappa light chain

Kd [1]: 0.11 nM
concentration at which inhibition of EGF binding begins [2]: ~8 nM
Kd [4]: 0.035 nM
koff [4]: 9.78e-05 s⁻¹
kon [4]: 2.8e+06 M⁻¹ s⁻¹
B2: antibody secreted by the hybridoma E2.4 (antibody, human IgG2, V domains shown)
VH: VSGGSINSGDYYWSWIRQHPGKGLEWIGSIYYSGNTFYNPSLKSRVTISLDTSKNQFSLKLSSVTAADTAVCYCARNIVTTGAFDIWGQGTMVTVSS
VL: TITCQASQDITIYLNWYQQKPGKAPKLLINDASSLETGVPLRFSGSGSGTDFTFTISSLQPEDIATYYCQQYDHLPLTFGGGTKVAIKR
notes: as for B1

IC50 [5]: 0.9 nM
Kd [6]: 0.05 nM
IC50 [7]: 3 nM
B3: antibody secreted by the hybridoma E7.6.3 (antibody, human IgG2, V domains shown)
VH: VSGGSVSSGDYYWTWIRQSPGKGLEWIGHIYYSGNTNYNPSLKSRLTISIDTSKTQFSLKLSSVTAADTAIYYCVRDRVTGAFDIWGQGTMVTSS
VL: TITCQASQDISNYLNWYQQKPGKAPKLLIYDASNLETGVPSRFSGSGSGTDFTFTISSLQPEDIATYFCQHFDHLPLAFGGGTKVEIKR
notes: Fully human IgG2 with a kappa light chain; also called E7.6.3 MAb

Kd [1]: 0.11 nM
concentration at which inhibition of EGF binding begins [2]: ~8 nM
B4: antibody secreted by the hybridoma E1.1 (antibody, human IgG2, V domains shown)
VH: VSGGSINSGDYYWSWIRQHPGKGLDCIGYIYYSGSTYYNPSLKSRVTISVDTSKNQFFLKLTSVTAADTAVYYCARSTVVNPGWFDPWGQGTLVTVSS
VL: TITCQASQDINNYLNWFQQKPGKAPKVLIHDASNLETGGPSRFSGSGSGTDFTFTISGLQPEDIATYYCQQYESLPLTFGGGTKVEIKR
notes: as for B1
